Substrate in data set [1]: CCN(CC)c1ccc(C(=C2C=CC(=[N+](CC)CC)C=C2)c2ccccc2)cc1
Kind of data set: purified protein. Type of data set: biochemical, Saccharomonospora viridis. To be noted: H2O2 co-substrate (0.1 mM in all tests), 50 mM phosphate pH 7.0, standard assay 60°C, temperature of kinetics not stated.

Substrate in data set [2]: Nc1c(S(=O)(=O)O)cc(Nc2cccc(S(=O)(=O)CCOS(=O)(=O)O)c2)c2c1C(=O)c1ccccc1C2=O
Kind of data set: purified protein. Type of data set: biochemical, Saccharomonospora viridis. To be noted: H2O2 co-substrate (0.1 mM in all tests), 50 mM phosphate pH 7.0, standard assay 60°C, temperature of kinetics not stated.

The term Km denotes the concentration of substrate that gives half-maximal velocity.

B1: SviDyP (Saccharomonospora viridis) (protein)
chain: MKGRRFGRRAFLATGAAALGGAAALGGRELFTGDGGADGRDRPDRGDIGRATVDFHGERQAGVATPAQAFATFVAFDLLDGVDREALIRWMRVWTDDIERLTRGAPALTDTEPELALLPARLTVTVGFGPGFLAAAGREELRPSWLAPLPEFPIDRLREEFSGGDLVAQVCADDEVTVAHAVRVLTKQARSFARPRWVQRGFRNTPGAVPEGATMRNLMGQLDGTRNLRPGPDDRLIWISDGPEWLRGGTGMVVRRIAMNLDTWDELDRPARELVIGRRLDNGAPLTGRHEHDEPDLEAVDERGLSVIPMFAHIRRARSDNPDERFLRRSYNYDDPPEPGELSNSGLVFVTFQADIEAQFTPIQRRLAELDSLNDWTTPIGSAVFAVPRGCRPGEYLGQPLLEA
notes: Ni-NTA and Sephadex G-75; tag removal not mentioned; ~45 kDa on SDS-PAGE
As to B1, the Km in “purified protein [1]” came out at 58.87 ± 4.7 µM; in the data set “purified protein [2]”, 210.2 ± 16.5 µM.
